Experimental data reported in publication PMC12417749.
pKd: −log10 of the molar value. Like-named read-outs stand apart in the source and are kept apart here.

How the values were obtained:
Experiment in all cases: SPR
[1] = molecular target: afucosylated Trastuzumab (TZM‐AF)
[2] = molecular target: galactosylated Trastuzumab (TZM‐GT)
[3] = molecular target: afucosylated Trastuzumab (TZM‐AF); remark: listed apart in the source
[4] = molecular target: galactosylated Trastuzumab (TZM‐GT); remark: listed apart in the source

pKd [1] | SPR signal at 300 nM receptor [1] [RU] | pKd [2] | SPR signal at 300 nM receptor [2] [RU] | pKd [3] | pKd [4] | Substance
6.60 | 40 | 6.74 | 40 | 6.70 | 6.77 | FcγRIIA (from UniProt P12318) (receptor)
6.74 | 40 | 6.59 | 40 | 6.77 | 6.66 | FcγRIIB (from UniProt P31994) (receptor)
